The text below walks through data of patent publication US20230250168A1 (MABWELL SHANGHAI BIOSCIENCE, published 2023).

Experiment [1] addresses T1, antigen human CLDN18.2, His-tagged (human, UniProt P56856-2 1-261, limits assumed).
T1 construct: Recombinant antigen used in the Fortebio assay (His-tagged, captured on NTA probe); also called His-tagged antigen; not shown: His tag
The experiment can be described thus: BLI (Fortebio), His-tagged antigen on NTA probe, 100 nM antibody, 1:1 fit. The protocol: (§1) The binding kinetic parameters of the chimeric antibodies and the humanized antibodies thereof to the antigen human CLDN18.2 were analyzed by a Fortebio (BLITZ pro1.1.0.28) instrument. Before performing the assay, an NTA bioprobe was soaked in PBS for 10 min, and the probe was then placed in PBS containing 100 nM antigen for 300 s to capture the His-tagged antigen. The probe was further subjected to a binding reaction with 100 nM antibody for a binding time of 400 s, and the probe was then transferred to PBS and subjected to a dissociation reaction for 600 s. When the assay was finished, data from which the response value of a blank control had been deducted were fitted to a 1:1 Langmuir binding model using software, and then the kinetic constants for antigen-antibody binding were calculated.

Experiment [2] addresses T1, antigen human CLDN18.2, His-tagged. As to the kind of experiment: BLI (Fortebio), His-tagged antigen on NTA probe; ratio to 52E22-xiIgG. The protocol:
as §1

Experiment [3] shares this target. The experiment can be described thus: SPR (BIAcore), antibody captured by anti-human Fc, antigen as analyte. As to the method: Referring to the instructions provided in the Human Antibody Capture Kit (cat No. BR-1008-39, Lot 10261753) from GE Healthcare, the analytical channel and the control sample channel on a CM5 sensor chip were first saturated and coupled with the maximum amount of anti-human Fc antibody, then buffers containing anti-human CLDN18.2 chimeric antibodies, humanized antibodies or a control antibody IMAB362 at 7.5 μg/ml were allowed to flow through the analytical channel and uniformly distribute. Finally, antigen samples diluted in gradient (the initial concentration was 20 nM and diluted by 1:3 to get 8 concentrations, and the concentration 0.741 nM was set to be repeated) were allowed to flow through both the analytical channel and the sample channel, and the photoreactions upon the binding of antibody to antigen were measured. Subsequently, the association constant Kon and dissociation constant Koff and affinity constant KD of each antibody were finally obtained by instrument software fitting analysis.

Experiment [4] concerns the target T2, human CLDN18.2 expressed on cell surfaces (human, UniProt P56856-2 1-261).
T2 construct: whole, on cells; also called CHOK1 cells stably expressing human CLDN18.2
The experiment can be described thus: FACS of hybridoma supernatants on CHOK1 cells. The protocol:
Balb/c mice were immunized with CHOK1 cells stably expressing human CLDN18.2 protein on cell surfaces. One month later, sera from the mice were analyzed by flow cytometry (FACS), and spleens were taken from mice having high antibody titers in sera. The spleen cells isolated by standard methods were fused with myeloma cells P3X63Ag8.653 using PEG or electrofusion methods. The fused hybridoma cells were seeded in 384 well plates, and after 10-14 days of culture, supernatants obtained were analyzed by FACS for antibody secretion by the hybridoma cells. Several clones were obtained that were able to bind to CHOK1 cells stably expressing human CLDN18.2 protein on cell surfaces and were not able to bind to CHOK1 cells stably expressing human CLDN18.1 protein on cell surfaces. Single cells of the obtained clones were obtained by Limiting Dilution, and each of the monoclonal hybridoma cell clones obtained after being diluted three times secreted only one antibody.

Experiment [5] has as its target T1, antigen human CLDN18.2, His-tagged. The experiment can be described thus: BLI (Fortebio), His-tagged antigen on NTA probe; ratio to 8K13-xiIgG. The protocol:
as §1

Experiment [6] has the same target. As to the kind of experiment: BLI (Fortebio), His-tagged antigen on NTA probe; ratio to 16K15-xiIgG. As to the method: as §1
The target in experiment [7] is T2, human CLDN18.2 expressed on cell …. As to the kind of experiment: cell-based or functional assay.
The target is the same in experiment [8]. As to the kind of experiment: cell-based or functional assay. The source holds these as a separate data set.

B1: 52E22-hz11 (antibody, human IgG1, V domains shown)
VH: QIQLVQSGSELKKPGASVKVSCKASGYTLTNYGMNWVRQAPGQGLEWMGWIRPNTGEPTYAEDFKGRFVFSLDTSVATAYLQITSLKAEDTAVYYCARLYRGNTLDNWGQGTLVTVSS
VL: DIVMTQSPDSLAVSLGERATINCKSSQNLLNSGNQRNYLTWYQQKPGQPPKLLIYWASTRESGVPDRFSGSGSGTDFTLTISSLQAEDLAVYYCQNGYSFPFTFGQGTKLEIKR
notes: Only the position of the reverse mutation is printed; copies: 2 + 2
On to B1, for which, in experiment [1], the Kd was found to be 0.542 nM, the Response was 0.238, the koff was 0.000197 s⁻¹ and the kon came out at 363000 M⁻¹ s⁻¹. In addition, the “Koff/Koff(Xi-IgG)” value in experiment [2] is 5.55.

B2: 52E22-xiIgG (antibody, V domains shown)
VH: QIQLVQSGPELKKPGETVKISCKASGYTLTNYGMNWVRQAPGKGLKWMGWIRPNTGEPTYAEDFKGRFVFSLETSAATAYLQITNLKSEDTSTYFCARLYRGNTLDNWGQGTSVIVSS
VL: DIVMTQSPSSLTVTTGEKVTMSCKSSQNLLNSGNQRNYLTWYQQKPGQSPKLLIYWASTRESGVPYRFTGSGSGTDFTLTISSVQTDDLAIYYCQNGYSFPFTFGSGTKLEIKR
notes: Murine variable regions on human IgG1 / kappa constant regions; also called 52E22 chimeric antibody
In experiment [3], B2 gave a Kd of 1.11 nM, a koff of 0.000545 s⁻¹ and a kon of 490000 M⁻¹ s⁻¹. For the same molecule, in experiment [1], the Kd turned out to be 0.0996 nM, the Response came out at 0.223, the koff worked out at 3.55e-05 s⁻¹ and the kon stood at 357000 M⁻¹ s⁻¹. Further, in experiment [2], the “Koff/Koff(Xi-IgG)” value is 1.

B3: murine antibody 50C14 (antibody, V domains shown)
VH: EVQLRQSGPELVKPGASVKMSCKASGYTFTTYIINWVKQKPGQGLEWIGYINPYNDGTRYNERVKGKATLTSDKSSSTAYMELSSLTSEDSAVYYCARFHFGNSFTYWGQGTLVTVSA
VL: DIVMTQSPSSLPVTTGEKVTMTCKSSQGLFNNGNQRNYLTWYQQKPGQPPKLLIYWASTRESGVPDRFIGSGSGTDFTLTISSVQAEDLAIYYCQNNYIFPLTFGAGTKLELK
notes: Mouse hybridoma antibody (supernatant)
For B3, the binding result in experiment [4] is given as “binds”.

B4: 8K13-xiIgG (antibody, V domains shown)
VH: QVHLQQSGAELVRPGSSVKISCKASGYAFSNYWMNWVRQRPGQGLEWIGQIYPGNGDTKYSGKFNSKDTLTADKSSNTAYMQLNSLTSEDSAVYFCARFYYGNVMDYWGQGTSVTVSS
VL: DIVLTQSPSSLTVTAGEKVTMSCKSSQTLLNGGNQKNYLTWYQQKSGQPPKLLIYWASTRESGVPDRFTGSGSGTDFTLTISSVQAEDLAVYYCQNGYSYPLTFGVGTKLELKR
notes: Murine variable regions on human IgG1 / kappa constant regions; also called 8K13 chimeric antibody
For the molecule B4, in experiment [3], binding was characterised by a dissociation constant (Kd) of 6.99 nM, the koff was found to be 0.000573 s⁻¹ and the kon worked out at 81900 M⁻¹ s⁻¹. Besides, in experiment [1], the Kd is 0.382 nM, the Response is 0.134, the koff was 0.000114 s⁻¹ and the kon worked out at 298000 M⁻¹ s⁻¹. Also, in experiment [5], the “Koff/Koff(Xi-IgG)” value was 1.

B5: 8K13-hz00 (antibody, human IgG1, V domains shown)
VH: QVQLVQSGAEVKKPGSSVKVSCKASGYAFSNYWMNWVRQAPGQGLEWMGQIYPGNGDTKYSGKFNSRVTITADESTSTAYMELSSLRSEDTAVYYCARFYYGNVMDYWGQGTLVTVSS
VL: DIVMTQSPDSLAVSLGERATINCKSSQTLLNGGNQKNYLTWYQQKPGQPPKLLIYWASTRESGVPDRFSGSGSGTDFTLTISSLQAEDVAVYYCQNGYSYPLTFGQGTKLEIK
notes: Humanized (direct CDR graft)
Turning to B5, in experiment [1], the equilibrium dissociation constant (Kd) was determined as 0.744 nM, the Response is 0.133, the koff stood at 0.000198 s⁻¹ and the kon was 266000 M⁻¹ s⁻¹. The “Koff/Koff(Xi-IgG)” value in experiment [5] was determined as 1.74.

B6: 8K13-hz11 (antibody, V domains shown)
VH: QVQLVQSGAEVKKPGSSVKVSCKASGYAFSNYWMNWVRQAPGQGLEWMGQIYPGNGDTKYSGKFNSRVTITADKSTNTAYMELSSLRSEDTAVYYCARFYYGNVMDYWGQGTLVTVSS
VL: DIVLTQSPDSLAVSLGERATINCKSSQTLLNGGNQKNYLTWYQQKPGQPPKLLIYWASTRESGVPDRFSGSGSGTDFTLTISSLQAEDLAVYYCQNGYSYPLTFGQGTKLEIK
In experiment [1], B6 had a Kd of 0.297 nM, a Response of 0.139, a koff of 6.73e-05 s⁻¹ and a kon of 227000 M⁻¹ s⁻¹. For the same molecule, the “Koff/Koff(Xi-IgG)” value in experiment [5] was found to be 0.59.

B7: 16K15-hz00 (antibody, human IgG1, V domains shown)
VH: EVQLVESGGGLVQPGGSLRLSCAASGITLSTYAMSWVRQAPGKGLEWVSSIISGGITYYLDSVKGRFTISRDNAKNSLYLQMNSLRAEDTAVYYCARKYHGNALDYWGQGTLVTVSS
VL: DIVMTQSPDSLAVSLGERATINCKSSQSLLNSGNQRNYLTWYQQKPGQPPKLLIYWASTRESGVPDRFSGSGSGTDFTLTISSLQAEDVAVYYCQNNYFYPLTFGQGTKLEIK
notes: Humanized (direct CDR graft)
In the case of B7, the “Koff/Koff(Xi-IgG)” value in experiment [6] was found to be 0.14. Also, in experiment [1], the Kd was found to be 0.0895 nM, the Response is 0.176, the koff is 2.15e-05 s⁻¹ and the kon was found to be 240000 M⁻¹ s⁻¹.

B8: 52E22-hz00 (antibody, human IgG1, V domains shown)
VH: QVQLVQSGSELKKPGASVKVSCKASGYTLTNYGMNWVRQAPGQGLEWMGWIRPNTGEPTYAEDFKGRFVFSLDTSVSTAYLQICSLKAEDTAVYYCARLYRGNTLDNWGQGTLVTVSS
VL: DIVMTQSPDSLAVSLGERATINCKSSQNLLNSGNQRNYLTWYQQKPGQPPKLLIYWASTRESGVPDRFSGSGSGTDFTLTISSLQAEDVAVYYCQNGYSFPFTFGQGTKLEIK
notes: Humanized (direct CDR graft)
For B8, in experiment [1], binding was put at a Kd of 0.309 nM, the Response was determined as 0.188, the koff came to 6.11e-05 s⁻¹ and the kon was found to be 198000 M⁻¹ s⁻¹. Moreover, in experiment [2], the “Koff/Koff(Xi-IgG)” value amounted to 1.72.

B9: 8K13-hz24 (antibody, human IgG1, V domains shown)
VH: QVQLVQSGAEVKKPGSSVKVSCKASGYAFSNYWMNWVRQAPGQGLEWMGQIYPGSGDTKYSGKFQSRVTITADKSTNTAYMELSSLRSEDTAVYYCARFYYGNVMDYWGQGTLVTVSS
VL: DIVLTQSPDSLAVSLGERATINCKSSQTLLSGGNQKNYLTWYQQKPGQPPKLLIYWASTRESGVPDRFSGSGSGTDFTLTISSLQAEDLAVYYCQQGYSYPLTFGQGTKLEIK
notes: Humanized; also called 8K13-hz24 IgG; 8K13-24 IgG
In experiment [3], B9 registered a dissociation constant (Kd) of 28.5 nM, a koff of 0.00202 s⁻¹ and a kon of 70900 M⁻¹ s⁻¹. Also, in experiment [7], the “CDC EC50, BxPC3 cells stably expressing human CLDN18.2 (CCK-8)” value came out at 28.5 nM; the “CDC EC50, CHOK1 cells stably expressing human CLDN18.2 (CCK-8)” value stood at 21.3 nM; the “CDC EC50, NCI-N87 cells stably expressing human CLDN18.2 (CCK-8)” value came out at 57.7 nM. In experiment [1], the Kd amounted to 1.51 nM, the Response turned out to be 0.133, the koff was 0.000399 s⁻¹ and the kon is 264000 M⁻¹ s⁻¹. Also, the “Koff/Koff(Xi-IgG)” value in experiment [5] amounted to 3.5. In experiment [8], the “ADCC reporter EC50 (Jurkat NFAT-luciferase effector cells), BxPC3 target cells” value stood at 0.304 nM; the “ADCC reporter EC50 (Jurkat NFAT-luciferase effector cells), CHOK1 target cells” value stood at 0.589 nM; the “ADCC reporter EC50 (Jurkat NFAT-luciferase effector cells), NCI-N87 target cells” value is 0.15 nM.

B10: 52E22-hz12 (antibody, human IgG1, V domains shown)
VH: QIQLVQSGSELKKPGASVKVSCKASGYTLTNYGMNWVRQAPGQGLEWMGWIRPNTGEPTYAEDFKGRFVFSLDTSVATAYLQITSLKAEDTAVYYCARLYRGNTLDNWGQGTLVTVSS
VL: DIVMTQSPDSLAVSLGERATINCKSSQNLLSSGNQRNYLTWYQQKPGQPPKLLIYWASTRESGVPDRFSGSGSGTDFTLTISSLQAEDLAVYYCQQGYSFPFTFGQGTKLEIK
notes: Humanized; also called 52E22-hz12 IgG; 52E22-12 IgG
With B10, in experiment [3], the affinity, expressed as Kd, was 1.18 nM; the koff came out at 0.000172 s⁻¹; the kon worked out at 146000 M⁻¹ s⁻¹. Moreover, the “CDC EC50, CHOK1 cells stably expressing human CLDN18.2 (CCK-8)” value in experiment [7] came to 2.08 nM. In experiment [1], this molecule yielded a Kd of 0.36 nM, a Response of 0.226, a koff of 7.83e-05 s⁻¹ and a kon of 218000 M⁻¹ s⁻¹. In addition, in experiment [2], the “Koff/Koff(Xi-IgG)” value was 2.21. Moreover, in experiment [8], the “ADCC reporter EC50 (Jurkat NFAT-luciferase effector cells), CHOK1 target cells” value amounted to 0.567 nM.
